Experimental data as given in article PMC6486544 (Nucleic Acids Research, 2019).

Tests used:
[1] = target: GB1-U1A (1-282) (UniProt P09012 1-282); assay: NMR titration
[2] = target: U1A RRM1 (1-126) (UniProt P09012 1-126); assay: NMR titration
U1A RRM1 (1-126), sequence (P09012 1-126): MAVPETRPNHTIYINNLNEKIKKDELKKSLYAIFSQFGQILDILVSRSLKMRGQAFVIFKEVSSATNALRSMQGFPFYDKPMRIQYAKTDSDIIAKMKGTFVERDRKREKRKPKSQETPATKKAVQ

GB1-U1A (1-282), sequence (P09012 whole entry): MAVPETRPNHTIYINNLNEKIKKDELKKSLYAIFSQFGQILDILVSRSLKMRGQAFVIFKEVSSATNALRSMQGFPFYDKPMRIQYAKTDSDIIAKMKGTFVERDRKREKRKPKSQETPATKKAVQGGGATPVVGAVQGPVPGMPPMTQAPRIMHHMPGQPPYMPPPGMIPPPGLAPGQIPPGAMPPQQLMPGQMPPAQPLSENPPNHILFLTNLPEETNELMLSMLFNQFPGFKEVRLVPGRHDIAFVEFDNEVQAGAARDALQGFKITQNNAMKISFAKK

B1: GB1-hSAM68 (C2) (domain or fragment, human, UniProt Q07666 365-443, looked up)
chain: TYEEYGYDDTYAEQSYEGYEGYYSQSQGDSEYYDYGHGEVQDSYEAYGQDDWNGTRPSLKAPPARPVKGAYREHPYGRY
binding result [1]: binds | binding result [2]: binds
